From publication PMC11348266

Molecular target: GRA4 (UniProt Q27002)
Experiment: exogenous co-IP
Conditions: reference: wild type TBK1; sites S172

TBK1 (from UniProt Q9UHD2) TBK1 S172A
binding against the reference: weaker
